Measurements from US20030228608, “Method to enhance homologous recombination” (Promega Corporation, published 2003).

T1: RecA (Thermotoga maritima, UniProt P36203 P36203:1-356)
T1 sequence: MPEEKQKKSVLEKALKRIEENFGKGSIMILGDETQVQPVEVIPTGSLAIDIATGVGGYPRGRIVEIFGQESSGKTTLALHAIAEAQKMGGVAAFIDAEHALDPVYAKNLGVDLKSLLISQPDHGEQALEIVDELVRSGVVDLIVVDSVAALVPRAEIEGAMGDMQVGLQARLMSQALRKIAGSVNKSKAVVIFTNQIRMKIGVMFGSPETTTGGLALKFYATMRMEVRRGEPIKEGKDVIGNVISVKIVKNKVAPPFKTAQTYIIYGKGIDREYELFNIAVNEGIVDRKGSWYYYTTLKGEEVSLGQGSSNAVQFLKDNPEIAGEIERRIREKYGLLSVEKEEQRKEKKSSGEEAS

B1: 91-mer (ssDNA)
DNA: ACAACAACTGGCGGGCAAACAGTCGTTGCTGATTGGCGTTGCCTAATCCAGTCTGGCCCTGCACGCGCCGTCGCAAATTGTCGCGGCGAT
modifications: [1 (5'-fluorescein)]
B2: 51-mer (ssDNA)
DNA: CAGTCGTTGCTGATTGGCGTTGCCTAATCCAGTCTGGCCCTGCACGCGCCG
modifications: [5'-F label (position 1)]

Key:
[1] = molecular target: T1, RecA; assay: EMSA; nucleoprotein assembly; 75 C, 2 mM Mg acetate, ATPgammaS or dATP/ATPgammaS; more efficient than E. coli RecA; conditions: tags: untagged; expressed in E. coli; label: 5' fluorescein
Description: (§1) To detect recombinase coating of a substrate (nucleoprotein assembly), a gel shift assay with a labeled ssDNA may be employed. For example, 0.1 μM of a fluorescein-tagged 91-mer oligonucleotide (F-[…] […] GAT; SEQ ID NO: 1) was used as a substrate for coating by RecA. The coating buffer for E. coli RecA was 25 mM Tris acetate, pH 7.85, 15 mM potassium glutamate (K-Glu), 5 mM Mg acetate, and 2.5 mM DTT. The coating buffer for Thermotoga RecA was 25 mM Tris acetate, pH 8.0, 15 mM K-Glu, 2 mM Mg acetate, 2.5 mM DTT and 0.1% Triton. The coating buffer also included ATPyS (3 mM), or dATP and ATPγS at a ratio of 10:1 (3 mM and 0.3 mM, respectively). RecA was then added to the coating buffer containing the substrate at a ratio of 4 μM RecA for 10 μM of base. The E. coli RecA coating reaction was incubated for up to 60 minutes at 42° C. and the Thermotoga RecA coating reaction was incubated for up to 60 minutes at 75° C. (or 65° C.), although other temperatures may be employed. The tagged oligonucleotide was visualized and quantified using a FluorImager-SI and ImageQuant Software.

[2] = molecular target: T1, RecA; assay: EMSA; 75 C, 2 mM Mg acetate; slower assembly than 91-mer; more efficient than E. coli RecA; conditions: tags: untagged; expressed in E. coli; label: 5' fluorescein
Description: as §1, with “Software. […]” for “Software.”

Binder | binding result [1] | binding result [2]
B1 | binds | –
B2 | – | binds
GCTGATTGGCGTTGCCTAATCCAGTCTGGCCCTGC (ssDNA, [5'-F label (position 1)]) [35-mer] | – | binds
